Bridge positions count the residues as written; N and C are the ends. Ends that are not written are not given here.
Columns and labels:
[1] = molecular target: P-0153 (IL-15/IL-15RαSushi+ Fc fusion protein); experiment: ELISA, P-0153 coated, biotinylated peptide titrated, Streptavidin-HRP
Experimental: The five peptides, L01 to L05 (SEQ ID NO: 97-101) in Table 19 were synthesized and assessed for their binding to IL-15 in ELISA format. […] Streptavidin-HRP complex at the manufacturer's recommended concentration was added and signal was developed by TMB substrate.

[2] = molecular target: T1, P-0689 (IL-2 Fc fusion) (Homo sapiens (Human), UniProt P0DOX5 223-448 = IgG part); experiment: ELISA, IL-2RαSushi Fc fusion coated, P-0689 titrated, biotin anti-IL2 antibody and Avidin-HRP
T1 construct: Monovalent IL-2 S125I Fc fusion; also called IL-2 S125I monovalent Fc fusion protein; monovalent wild-type IL-2 Fc fusion protein
Experimental: IL-2Rα variants were designed to reduce binding to IL-2 by incorporating mutations at residues interacting IL-2 so that the D3 moiety would readily diffuse away upon in vivo proteolysis. Three exemplary IL-2RαSushi variants (SEQ ID NOS: 267-269) were expressed as monovalent Fc fusion proteins corresponding to P-0751 (Y43A), P-0752 (L42G), and P-0753 (R36A), respectively. The three IL-2RαSushi variant Fc fusions were assessed for the impacts of individual mutations on binding to IL-2 in ELISA in comparison to their wild-type IL-2RαSushi counterpart fusion referred to as P-0757.
Briefly, IL-2RαSushi variant monovalent Fc fusion proteins was coated onto the wells of Nunc Maxisorp 96-well microplates at 1 μg/well. […] Following a one-hour incubation at room temperature, 100 μl/well of biotin anti-IL2 antibody clone B33-2 (BD biosciences) at 1 μg/ml were added to each well and incubated at room temperature for 1 hour. Subsequently, 100 μl/well of Avidin-HRP (BioLegend) at 1:500 dilution was added to each well and incubated for 30 min. Finally, 100 μl TMB substrate was added to each well; the plate was developed at room temperature, and 100 μl/well of stop solution was added. Absorbance was determined at 450 nm and curves were fit using Prism software (GraphPad).

P-0153 (IL-15/IL-15RαSushi+ Fc fusion protein), sequence (chain, as listed by the source, chain 1 of 2): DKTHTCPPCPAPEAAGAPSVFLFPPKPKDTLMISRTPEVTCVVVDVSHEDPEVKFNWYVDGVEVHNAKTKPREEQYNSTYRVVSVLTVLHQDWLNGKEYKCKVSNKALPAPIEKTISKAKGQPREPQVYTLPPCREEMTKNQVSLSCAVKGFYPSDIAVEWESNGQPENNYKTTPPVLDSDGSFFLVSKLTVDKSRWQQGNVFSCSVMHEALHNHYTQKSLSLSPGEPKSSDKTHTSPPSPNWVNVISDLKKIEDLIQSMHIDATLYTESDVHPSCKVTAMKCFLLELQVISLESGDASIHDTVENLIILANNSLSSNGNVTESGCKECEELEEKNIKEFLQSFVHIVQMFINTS
P-0153 (IL-15/IL-15RαSushi+ Fc fusion protein), sequence (chain, as listed by the source, chain 2 of 2): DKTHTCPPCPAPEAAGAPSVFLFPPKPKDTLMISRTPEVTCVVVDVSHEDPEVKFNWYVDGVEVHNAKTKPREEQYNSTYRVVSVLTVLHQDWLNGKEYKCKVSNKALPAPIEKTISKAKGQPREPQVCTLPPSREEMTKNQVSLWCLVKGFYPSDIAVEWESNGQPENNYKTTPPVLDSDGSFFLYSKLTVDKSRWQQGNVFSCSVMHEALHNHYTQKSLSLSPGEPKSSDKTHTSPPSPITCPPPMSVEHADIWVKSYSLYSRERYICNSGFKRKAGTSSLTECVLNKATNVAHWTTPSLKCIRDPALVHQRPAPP

Binder	binding result [1]	EC50 [2] [nM]	EC50 Fold change vs w/t IL-2Rα [2] [fold]
CEISQASHYFERHLC (bridge 1-15 (inferred); also: biotinylated, site not given here, cyclized, bridge kind not given here, also called cyclized loop 2) [L03 (IL-2Rβ-based blocking peptide)]	binds	–	–
P-0757 (wild-type IL-2RαSushi monovalent Fc fusion) (Fc fusion, also called w/t IL-2Rα; not shown: Fc chain fused to the Sushi domain, its linker and orientation, and the partner Fc chain of the monovalent heterodimer) ELCDDDPPEIPHATFKAMAYKEGTMLNCECKRGFRRIKSGSLYMLCTGNSSHSSWDNQCQCTSSATRNTTKQVTPQPEEQKERKTTEMQSPMQPVDQASLPGHCREPPPWENEATERIYHFVVGQMVYYQCVQGYRALHRGPAESVCKMTHGKTRWTQPQLICTG	–	0.26	1
P-0753 (IL-2RαSushi R36A monovalent Fc fusion) (Fc fusion, also called IL-2Rα R36A; not shown: Fc chain fused to the Sushi variant, its linker and orientation, and the partner Fc chain of the monovalent heterodimer) ELCDDDPPEIPHATFKAMAYKEGTMLNCECKRGFRAIKSGSLYMLCTGNSSHSSWDNQCQCTSSATRNTTKQVTPQPEEQKERKTTEMQSPMQPVDQASLPGHCREPPPWENEATERIYHFVVGQMVYYQCVQGYRALHRGPAESVCKMTHGKTRWTQPQLICTG	–	90	346
P-0752 (IL-2RαSushi L42G monovalent Fc fusion) (Fc fusion, also called IL-2Rα L42G; not shown: Fc chain fused to the Sushi variant, its linker and orientation, and the partner Fc chain of the monovalent heterodimer) ELCDDDPPEIPHATFKAMAYKEGTMLNCECKRGFRRIKSGSGYMLCTGNSSHSSWDNQCQCTSSATRNTTKQVTPQPEEQKERKTTEMQSPMQPVDQASLPGHCREPPPWENEATERIYHFVVGQMVYYQCVQGYRALHRGPAESVCKMTHGKTRWTQPQLICTG	–	9.2	35
P-0751 (IL-2RαSushi Y43A monovalent Fc fusion) (Fc fusion, also called IL-2Rα Y43A; not shown: Fc chain fused to the Sushi variant, its linker and orientation, and the partner Fc chain of the monovalent heterodimer) ELCDDDPPEIPHATFKAMAYKEGTMLNCECKRGFRRIKSGSLAMLCTGNSSHSSWDNQCQCTSSATRNTTKQVTPQPEEQKERKTTEMQSPMQPVDQASLPGHCREPPPWENEATERIYHFVVGQMVYYQCVQGYRALHRGPAESVCKMTHGKTRWTQPQLICTG	–	2.1	8.1
